From PMC7904477 (Journal of the American Chemical Society, 2020)

T1: wt α2 (subunit α2 of E. coli class Ia ribonucleotide reductase) (E. coli, UniProt P00452 1-761)
T1 sequence (looked up): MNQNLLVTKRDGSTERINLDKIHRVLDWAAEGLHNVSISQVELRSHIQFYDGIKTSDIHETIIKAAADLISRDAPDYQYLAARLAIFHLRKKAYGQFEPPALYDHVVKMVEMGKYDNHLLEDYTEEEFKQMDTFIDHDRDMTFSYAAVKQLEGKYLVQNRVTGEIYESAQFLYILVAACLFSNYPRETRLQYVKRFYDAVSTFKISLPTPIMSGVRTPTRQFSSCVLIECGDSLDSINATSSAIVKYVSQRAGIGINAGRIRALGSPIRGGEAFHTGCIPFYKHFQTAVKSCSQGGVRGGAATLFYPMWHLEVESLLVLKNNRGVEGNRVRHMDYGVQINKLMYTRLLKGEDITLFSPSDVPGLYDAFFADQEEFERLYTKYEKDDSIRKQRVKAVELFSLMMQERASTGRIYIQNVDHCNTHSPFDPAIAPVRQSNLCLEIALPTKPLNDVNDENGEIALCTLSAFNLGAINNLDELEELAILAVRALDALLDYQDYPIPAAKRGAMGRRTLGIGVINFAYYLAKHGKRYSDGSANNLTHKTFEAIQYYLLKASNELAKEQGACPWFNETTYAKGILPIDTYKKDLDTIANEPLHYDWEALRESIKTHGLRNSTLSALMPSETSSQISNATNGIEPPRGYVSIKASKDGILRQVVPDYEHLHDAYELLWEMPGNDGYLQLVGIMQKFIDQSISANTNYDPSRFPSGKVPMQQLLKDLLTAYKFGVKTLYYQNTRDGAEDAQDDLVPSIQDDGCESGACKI


Target: T1, wt α2 (subunit α2 of E. coli class Ia …)
Assay: competitive inhibition assay

| binding result | Kd | Binder |
| --- | --- | --- |
| binds | – | wt β2 (subunit β2 of E. coli class Ia ribonucleotide reductase) (enzyme, UniProt P69924 1-376, looked up, diferric-tyrosyl radical cofactor (Y122•), reconstitution yield of 1.1 Y•/β2) MAYTTFSQTKNDQLKEPMFFGQPVNVARYDQQKYDIFEKLIEKQLSFFWRPEEVDVSRDRIDYQALPEHEKHIFISNLKYQTLLDSIQGRSPNVALLPLISIPELETWVETWAFSETIHSRSYTHIIRNIVNDPSVVFDDIVTNEQIQKRAEGISSYYDELIEMTSYWHLLGEGTHTVNGKTVTVSLRELKKKLYLCLMSVNALEAIRFYVSFACSFAFAERELMEGNAKIIRLIARDEALHLTGTQHMLNLLRSGADDPEMAEIAEECKQECYDLFVQAAQQEKDWADYLFRDGSMIGLNKDILCQYVEYITNIRMQAVGLDLPFQTRSNPIPWINTWLVSDNVQVAPQEVEVSSYLVGQIDSEVDTDDLSNFQL |
| – | 1060 nM | E52Q-photoβ2 (E52Q/C268S/C305S/S355C-β2 of E. coli class Ia ribonucleotide reductase, labelled with the [Re] photooxidant at C355) (enzyme, UniProt P69924 1-376, looked up, [Re] photooxidant (tricarbonyl(1,10-phenanthroline)-4-thiomethylpyridine rhenium) covalently ligated to C355 (S355C); endogenous Y122• reduced) MAYTTFSQTKNDQLKEPMFFGQPVNVARYDQQKYDIFEKLIEKQLSFFWRPEQVDVSRDRIDYQALPEHEKHIFISNLKYQTLLDSIQGRSPNVALLPLISIPELETWVETWAFSETIHSRSYTHIIRNIVNDPSVVFDDIVTNEQIQKRAEGISSYYDELIEMTSYWHLLGEGTHTVNGKTVTVSLRELKKKLYLCLMSVNALEAIRFYVSFACSFAFAERELMEGNAKIIRLIARDEALHLTGTQHMLNLLRSGADDPEMAEIAEESKQECYDLFVQAAQQEKDWADYLFRDGSMIGLNKDILSQYVEYITNIRMQAVGLDLPFQTRSNPIPWINTWLVSDNVQVAPQEVEVSCYLVGQIDSEVDTDDLSNFQL |
